Consider nine molecules from paper PMC10547764, “KaScape: a sequencing-based method for global characterization of protein‒DNA binding affinity”.

First the molecules themselves.
B1: type 2 (GACCT) (dsDNA)
DNA 1: GCGCTGACCTAGGAG
DNA 2: CTCCTAGGTCAGCGC
B2: type 6 (TGACC) (dsDNA)
DNA 1: GCGCTTGACCAGGAG
DNA 2: CTCCTGGTCAAGCGC
B3: type 5 (AGACC) (dsDNA)
DNA 1: GCGCTAGACCAGGAG
DNA 2: CTCCTGGTCTAGCGC
B4: type 4 (GACCA) (dsDNA)
DNA 1: GCGCTGACCAAGGAG
DNA 2: CTCCTTGGTCAGCGC
B5: type 3 (GACCC) (dsDNA)
DNA 1: GCGCTGACCCAGGAG
DNA 2: CTCCTGGGTCAGCGC
B6: type 7 (CGACC) (dsDNA)
DNA 1: GCGCTCGACCAGGAG
DNA 2: CTCCTGGTCGAGCGC
B7: type 8 (GGACC) (dsDNA)
DNA 1: GCGCTGGACCAGGAG
DNA 2: CTCCTGGTCCAGCGC
B8: type 1 (GACCG) (dsDNA)
DNA 1: GCGCTGACCGAGGAG
DNA 2: CTCCTCGGTCAGCGC
B9: KaScape n=4 member GACT (dsDNA)
DNA 1: GCGCTGACTAGGAGTGGGATCCGGGGGGGG
DNA 2: CCCCCCCCGGATCCCACTCCTAGTCAGCGC

T1 sequence (Q9SI37 105-169): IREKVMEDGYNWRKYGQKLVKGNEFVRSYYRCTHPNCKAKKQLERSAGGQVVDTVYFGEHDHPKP

One data set has as its target T1, AtWRKY1N (N-terminal WRKY DNA-binding domain) (UniProt Q9SI37 105-169). As to the kind of experiment: EMSA; protein:DNA 1:1 and 2:1; KaScape: 2e-11 mol protein and 1e-10 mol dsDNA in 2 mL, 30 min, Ni beads 1 h at 4 C, washes in buffer C (25 mM HEPES pH 7.0, 100 mM NaCl); EMSA buffer not given. The settings on record: protein: recombinant; tags: C-terminal His-tag (pET21b).
Turning to B1, the binding result is recorded as “binds”. The same measure, in the same setting: under B2 stands “binds”; under B3, “binds”; under B4, “binds”. On the same count and under the same terms, to B5 belongs “binds”. Same read-out and setting: under B6 stands “no binding”. For B7, the binding result is “binds”. On the same count and under the same terms, under B8 stands “binds”.

In the next data set the target is T1, AtWRKY1N (N-terminal WRKY DNA-binding …). Description: KaScape pull-down + NGS; random n=4 pool; second strongest; KaScape: 2e-11 mol protein and 1e-10 mol dsDNA in 2 mL, 30 min, Ni beads 1 h at 4 C, washes in buffer C (25 mM HEPES pH 7.0, 100 mM NaCl); EMSA buffer not given. The settings on record: protein: recombinant; tags: C-terminal His-tag (pET21b). For orientation: A gel shift assay detects complexes by their altered migration in electrophoresis.
For B9, the binding result is listed as “binds”.
